Measurements published in patent publication US20060177826A1 (SERUM BIOMEDICAL INSTITUTE, published 2006).

Biological target: T1, human beta-FSH subunit (SDK-X1X2 expression product) (human, UniProt P01225 19-129)
T1 construct: Expressed from pTPKBFSH in co-transfected COS-7L and CHO-S cells and tested as secreted protein in the culture supernatant; also called β subunit of human FSH
Assay: FSH-IRMA sandwich immunoradiometric assay (one mAb for the alpha subunit, one for the beta subunit) on supernatant of co-transfected cells; detects only the complete alpha and beta complex
Method: Following transfection, the cells were cultured in a selective medium containing 1000 μg/ml Geneticine and 400 μg/ml Blasticidin for 7 days. Geneticine-Blasticidine-resistant cells were transferred in a new culture medium containing Geneticine (200 μg/ml) and Blasticidin (200 μg/mL), and cultured to a cell density of 10⁶ cells/ml. The supernatant of this culture was than tested for the presence of the multisubunit (alpha subunit and beta subunit non-covalently associated) FSH complex.
The presence of the alpha and beta FSH complex was detected using the BIOSOURCE FSH-IRMA Kit (Biosource Europe S.A., Cat # KIP0841-KIP0844), an immunoradiometric assay kit for the quantitation of Follicle Stimulating Hormone (FSH). This FSH-IRMA assay is based on the use of two monoclonal antibodies, one specific for the alpha subunit of FSH and one for the beta subunit of FSH. Thus this assay only detects the complete alpha and beta FSH complex. The supernatant of pLenti6/V5-glycalA and the pTPKBFSH co-transfected cells was tested using the FSH-IRMA kit according to manufacturer's instructions.

T1 sequence (P01225 19-129 limits assumed): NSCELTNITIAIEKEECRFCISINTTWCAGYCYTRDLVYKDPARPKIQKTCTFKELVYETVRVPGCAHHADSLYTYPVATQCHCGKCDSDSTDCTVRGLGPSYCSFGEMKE

- binding result: binds
B1: human alpha-FSH subunit (glycalA expression product) (ligand)
chain: not shown
notes: Expressed from pLenti6/V5-glycalA in co-transfected COS-7L and CHO-S cells and tested as secreted protein in the culture supernatant; also called alpha subunit of FSH
